# Laboratory results reported in paper PMC2562697.
# Molecular target: MutSα subunit MSH2-His6;MutSα subunit MSH6 (human;human, UniProt P43246;P52701 1-934;1-1360, |)
# Test: EMSA
binder,measurement,value
G:T mismatch 35 bp (dsDNA) DNA 1: GTGGATCCCCCGGGCTGCGGGAATTCGATATCAAG DNA 2: CTTGATATCGAATTCCTGCAGCCCGGGGGATCCAC,binding result,binds
